Results as given in patent US20040038876A1.

Molecular target: Ptc-1
Assay: Ptc-1 binding assay, format not described

Substance	Ptc binding [nM]
mutant 25 (Shh C1II/A169C + S133C), 5 K PEG (from UniProt Q15465 25-197) (ligand)	33
mutant 19 (Shh C1II/A169C + Y57C), NEM-modified (from UniProt Q15465 25-197) (ligand)	1
mutant 22 (Shh C1II/A169C + S154C), 5 K PEG (from UniProt Q15465 25-197) (ligand)	85
wild type Shh, 5 K PEG (from UniProt Q15465 24-197) (ligand)	42
mutant 44 (Shh C1II/A169C + E113C), 5 K PEG (from UniProt Q15465 25-197) (ligand)	12
mutant 24 (Shh C1II/A169C + S112C), 5 K PEG (from UniProt Q15465 25-197) (ligand)	8
mutant 19 (Shh C1II/A169C + Y57C), 5 K PEG (from UniProt Q15465 25-197) (ligand)	3
mutant 18 (Shh C1II/A169C + N46C), NEM-modified (from UniProt Q15465 25-197) (ligand)	2
mutant 21 (Shh C1II/A169C + N92C), 5 K PEG (from UniProt Q15465 25-197) (ligand)	35
mutant 25 (Shh C1II/A169C + S133C), unmodified (from UniProt Q15465 25-197) (ligand)	3.7
mutant 21 (Shh C1II/A169C + N92C), NEM-modified (from UniProt Q15465 25-197) (ligand)	0.3
mutant 44 (Shh C1II/A169C + E113C), unmodified (from UniProt Q15465 25-197) (ligand)	2.3
mutant 25 (Shh C1II/A169C + S133C), NEM-modified (from UniProt Q15465 25-197) (ligand)	0.4
wild type Shh, NEM-modified (from UniProt Q15465 24-197) (ligand)	1.4
mutant 24 (Shh C1II/A169C + S112C), NEM-modified (from UniProt Q15465 25-197) (ligand)	0.6
mutant 44 (Shh C1II/A169C + E113C), NEM-modified (from UniProt Q15465 25-197) (ligand)	0.5
mutant 17 (Shh C1II/A169C + N27C), 5 K PEG (from UniProt Q15465 25-197) (ligand)	32
Shh C1II/A169C, 5 K PEG (from UniProt Q15465 25-197) (ligand)	1
mutant 20 (Shh C1II/A169C + N68C), 5 K PEG (from UniProt Q15465 25-197) (ligand)	3
mutant 20 (Shh C1II/A169C + N68C), unmodified (from UniProt Q15465 25-197) (ligand)	3
wild type Shh, unmodified (from UniProt Q15465 24-197) (ligand)	2.4
mutant 22 (Shh C1II/A169C + S154C), unmodified (from UniProt Q15465 25-197) (ligand)	3.9
mutant 17 (Shh C1II/A169C + N27C), NEM-modified (from UniProt Q15465 25-197) (ligand)	0.3
mutant 18 (Shh C1II/A169C + N46C), 5 K PEG (from UniProt Q15465 25-197) (ligand)	2
Shh C1II/A169C, NEM-modified (from UniProt Q15465 25-197) (ligand)	0.4
Shh C1II/A169C, unmodified (from UniProt Q15465 25-197) (ligand)	1.1
mutant 17 (Shh C1II/A169C + N27C), unmodified (from UniProt Q15465 25-197) (ligand)	1.3
mutant 20 (Shh C1II/A169C + N68C), NEM-modified (from UniProt Q15465 25-197) (ligand)	2
mutant 22 (Shh C1II/A169C + S154C), NEM-modified (from UniProt Q15465 25-197) (ligand)	8.3
